# Reference: publication PMC10094033, “pilE G-Quadruplex Is Recognized and Preferentially Bound but Not Processed by the MutL Endonuclease from Neisseria gonorrhoeae Mismatch Repair Pathway”
# T1: ngMutL (Neisseria gonorrhoeae, UniProt Q5F8M6 1-658)
# T1 sequence: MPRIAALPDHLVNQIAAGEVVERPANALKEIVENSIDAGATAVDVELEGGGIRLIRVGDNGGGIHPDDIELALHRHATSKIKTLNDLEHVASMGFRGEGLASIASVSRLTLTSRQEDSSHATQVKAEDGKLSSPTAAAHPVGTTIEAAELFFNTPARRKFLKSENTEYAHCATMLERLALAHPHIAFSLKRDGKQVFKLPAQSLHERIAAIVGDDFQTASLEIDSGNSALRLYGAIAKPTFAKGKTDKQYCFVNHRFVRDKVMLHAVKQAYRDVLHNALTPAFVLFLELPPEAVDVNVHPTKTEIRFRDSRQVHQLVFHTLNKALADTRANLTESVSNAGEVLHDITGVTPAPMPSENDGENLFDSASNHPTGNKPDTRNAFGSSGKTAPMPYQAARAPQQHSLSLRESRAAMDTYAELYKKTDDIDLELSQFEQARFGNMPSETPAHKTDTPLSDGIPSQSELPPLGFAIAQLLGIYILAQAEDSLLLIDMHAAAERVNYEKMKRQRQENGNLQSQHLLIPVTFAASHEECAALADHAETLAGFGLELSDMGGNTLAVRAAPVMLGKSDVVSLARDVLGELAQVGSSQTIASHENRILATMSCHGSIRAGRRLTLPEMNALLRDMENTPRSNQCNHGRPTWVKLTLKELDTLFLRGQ
# B1: 95pilG4/95M (dsDNA)
# DNA 1: GTCGGAATTTGAGATTTTTGAATTTACGCGTTAGAATAGGGTGGGTTGGGTGGGGAATTTTCTATTTTTTAAAAAGCTCCGTTTTCTTGGAAAGC
# DNA 2: GCTTTCCAAGAAAACGGAGCTTTTTAAAAAATAGAAAATTCCCCACCCAACCCACCCTATTCTAACGCGTAAATTCAAAAATCTCAAATTCCGAC
# B2: 41pilG4/41M (dsDNA)
# DNA 1: ACGCGTTAGAATAGGGTGGGTTGGGTGGGGAATTTTCTATT
# DNA 2: AATAGAAAATTCCCCACCCAACCCACCCTATTCTAACGCGT
# B3: 95G4/76M (mixed)
# DNA 1: ATAGGACGCTGACACTGGTGCTTGGCAGCTGAGCCATATTTGGGTGGGTGGGTGGGTTGCTCGAGTAACGCTCATAGGATCCAAGCGCGAAAGGA
# DNA 2: TCCTTTCGCGCTTGGATCCTATGAGCGTTACTCGAGCATATGGCTCAGCTGCCAAGCACCAGTGTCAGCGTCCTAT
# Key:
# ngMutL [1] = molecular target: T1, ngMutL; assay: EMSA; apparent Kd, per dimer; no ATP; 20 mM HEPES pH 8.0, 100 mM KCl, 0.5 mg/mL BSA, 1 mM DTT, 20 nM DNA, 15-1000 nM ngMutL dimer, 10 min on ice; 6% native PAGE in TAE at 4 C; conditions: protein: recombinant, tags: N-terminal His6, chain copies: 2, label: 3'-TAMRA on strand 1, blunt
# ngMutL [2] = molecular target: T1, ngMutL; assay: EMSA; increasing ATP; binding not significantly reduced by ATP; 20 mM HEPES pH 8.0, 100 mM KCl, 0.5 mg/mL BSA, 1 mM DTT, 20 nM DNA, 15-1000 nM ngMutL dimer, 10 min on ice; 6% native PAGE in TAE at 4 C; conditions: protein: recombinant; tags: N-terminal His6; chain copies: 2; label: 3'-TAMRA on strand 1; duplex with unpaired G4 insert in strand 1, blunt ends
binder,measurement,setting,value
B1,Kd,ngMutL [1],123 nM
B2,Kd,ngMutL [1]; G4 may be partially preserved by CD,650 nM
B3,binding result,ngMutL [2],binds
